Data as given in article PMC9982066, “Inhibition of Ehrlichia chaffeensis infection by cell-permeable macrocyclic peptides that bind type IV secretion effector Etf-1” (PNAS Nexus, 2023).
Starred links: 1 amine or outer side, 2 acyl side, 3 side chain; linkers in the order of their positions; H or OH if unused. Positions of bridges follow the written chain, without caps; N, C: chain ends. Non-standard residues stand in square brackets, D forms with d. No end group written: not given here. Trimesoyl = O=C(c1cc(C(=O)[*:2])cc(C(=O)[*:3])c1)[*:1]; Phe(4-Cl) = N[C@@H](Cc1ccc(Cl)cc1)C(=O)O; Phe(4-F) = N[C@@H](Cc1ccc(F)cc1)C(=O)O; 2Nal = N[C@@H](Cc1ccc2ccccc2c1)C(=O)O; d2Nal = N[C@H](Cc1ccc2ccccc2c1)C(=O)O; βAsp = O=C(O)[C@H](CC(=O)[*:2])N[*:1]; Phg = N[C@H](C(=O)O)c1ccccc1; Nle = CCCC[C@H](N)C(=O)O; Orn = NCCC[C@H](N)C(=O)O; Dap = NC[C@H](N)C(=O)O; TMA = not defined here; βAla = NCCC(=O)O

B1: FAM-labeled macrocyclic peptide B7-133-5 (peptide)
chain: YDHDHLXFXRRRRX
modifications: not fully specified; same peptide as Dm35 (Table S3); bicyclic via TMA to Dap7 and Dap14; D2=isoAsp, D-Leu6, X7/X14=Dap, F8=4-chloro-Phe, X9=D-2-Nal, D-Arg10, D-Arg12; linker Lys(FAM) left out
B2: FAM-labeled macrocyclic peptide B13 (peptide)
chain: EHFEHAXFXRRRX
modifications: not fully specified; carboxyfluorescein (FAM) at the C-terminus through a β-Ala-β-Ala-Lys linker
B3: FAM-labeled macrocyclic peptide B17 (peptide)
chain: XFGDYXFXRRRRX
modifications: not fully specified; carboxyfluorescein (FAM) at the C-terminus through a β-Ala-β-Ala-Lys linker
B4: FAM-labeled macrocyclic peptide B22 (peptide)
chain: VXNHAXFXRRRRX
modifications: not fully specified; carboxyfluorescein (FAM) at the C-terminus through a β-Ala-β-Ala-Lys linker
B5: macrocyclic peptide B17, FAM-labelled (peptide)
chain: [Phg][dF]GDY[Dap]F[d2Nal][dR]R[dR]R[Dap]-{βAla-βAla-Lys(FAM)}
modifications: linker 6-13 via TMA; reading uncertain; also: TMA third attachment point not given here
B6: macrocyclic peptide B22, FAM-labelled (peptide)
chain: [dV][Orn][dN]H[dA][Dap]F[d2Nal][dR]R[dR]R[Dap]-{βAla-βAla-Lys(FAM)}
modifications: linker 6-13 via TMA; reading uncertain; also: TMA third attachment point not given here
B7: macrocyclic peptide B13, FAM-labelled (peptide)
chain: [dE]H[dF][dE]HA[Dap][dF][2Nal]R[dR]R[Dap]-{βAla-βAla-Lys(FAM)}
modifications: linker 7-13 via TMA; reading uncertain; also: TMA third attachment point not given here
B8: FAM-labeled macrocyclic peptide B7-131-4 (peptide)
chain: Y[Phe(4-F)]D[Phg][dY][βAsp][dL][Dap][Phe(4-Cl)][d2Nal][dR]R[dR]R[Dap]-{βAla-βAla-Lys(FAM)}
modifications: linker 8-15 via TMA; reading uncertain; also: TMA third attachment point not given here
B9: FAM-labeled macrocyclic peptide B7-133-9 (peptide)
chain: Y[dV][dL][dY][Phe(4-F)][dL][Dap][Phe(4-Cl)][d2Nal][dR]R[dR]R[Dap]-{βAla-βAla-Lys(FAM)}
modifications: linker 7-14 via TMA; reading uncertain; also: TMA third attachment point not given here
B10: FAM-labeled macrocyclic peptide B7-131-1 (peptide)
chain: Y[dN][d2Nal]S[Phg][dL][dL][Dap][Phe(4-Cl)][d2Nal][dR]R[dR]R[Dap]-{βAla-βAla-Lys(FAM)}
modifications: linker 8-15 via TMA; reading uncertain; also: TMA third attachment point not given here
B11: FAM-labeled macrocyclic peptide B7-131-5 (peptide)
chain: YH[dP][d2Nal]DA[dL][Dap][Phe(4-Cl)][d2Nal][dR]R[dR]R[Dap]-{βAla-βAla-Lys(FAM)}
modifications: linker 8-15 via TMA; reading uncertain; also: TMA third attachment point not given here
B12: biotinylated full-length Etf-1 protein (natural protein, E. chaffeensis, UniProt Q2GG12 1-380, looked up)
chain: MLTFLKKGANVVIKAAITPTTSKLPHQESVGKYLGGMLKSIIPGQKDPAEKHFDLRMHNRTHKLGVELPARTRIDGHEQEVALKVPSYKLPYQTLQKFAAWQEQDKEGEVEETKKDTLTSLINPVSATQEFIRSNTADKYFEKLKALDQQLKEIGGKVTVNSTPGRYKQGLTIELDVSNKSRIAIEKDVRLVLEGLGINDEELVKTFTKRLYKSSTDKKMSSADIHTEKTSSNTDSKDNSNNQDHDIVSPAKRHGSDTVSAVQRQGDDILSSSQEQSSKTGSPTNSTGISNSDFSLTNPQNMPYSRTPMQSSQMLQQLQNQILMQQKPERIFSQAMPTVMQQEIDEIAEDLCQGLNEGPTQGNSNNIGKHFSNPGKVHAR
modifications: biotin (two equivalents of NHS-PEG4-D-Biotin, pH 8.0)
notes: source: E. coli BL21(DE3), purified (HisPur Cobalt resin, size exclusion chromatography), then biotinylated

Biological target: T1, Ehrlichia translocated factor-1 (Etf-1), recombinant 6×His-Etf-1 fusion protein (E. chaffeensis, UniProt Q2GG12 1-380)
Assay: fluorescence polarisation
Conditions: both partners purified

| Binder | Kd |
| --- | --- |
| B1 | > 10 µM |
| B2 | > 25 µM |
| B3 | > 25 µM |
| B4 | > 25 µM |

Biological target: T2, Ehrlichia translocated factor-1 (Etf-1) (Ehrlichia chaffeensis, UniProt Q2GG12 1-380)
Assay: fluorescence polarisation
Conditions: both partners purified

| Binder | Kd |
| --- | --- |
| IDA[Nle]H[Dap]F[2Nal]RRR[Dap] (linker 6-12 via TMA; not fully specified (C-terminus); reading uncertain) [macrocyclic peptide C9, FAM-labelled] | > 25 µM |
| B5 | > 25 µM |
| QHS[dV][Dap][dF][2Nal]R[dR]R[Dap] (linker 5-11 via TMA; not fully specified (C-terminus); reading uncertain) [macrocyclic peptide C6, FAM-labelled] | > 25 µM |
| IHA[Orn][dK][Dap]F[2Nal]RRR[Dap] (linker 6-12 via TMA; not fully specified (C-terminus); reading uncertain) [macrocyclic peptide C19, FAM-labelled] | > 25 µM |
| B6 | > 25 µM |
| B7 | > 25 µM |

Biological target: T2, Ehrlichia translocated factor-1 (Etf-1)
Assay: fluorescence polarisation
Conditions: both partners purified
Remark: another data set of the same source

| Binder | Kd |
| --- | --- |
| Y[Nle][dE]QG[dL][Dap][Phe(4-Cl)][d2Nal][dR]R[dR]R[Dap]-{Lys(FAM)} (linker N-7-14 via Trimesoyl; not fully specified (N-terminus)) [macrocyclic peptide B7-133-4, FAM-labelled] | 6.5 ± 0.1 µM |
| YH[d2Nal]QS[Phe(4-F)][dL][Dap][Phe(4-Cl)][d2Nal][dR]R[dR]R[Dap]-{Lys(FAM)} (linker N-8-15 via Trimesoyl; not fully specified (N-terminus)) [macrocyclic peptide B7-131-2, FAM-labelled] | 8.8 ± 0.9 µM |
| Y[βAsp]HDH[dL][Dap][Phe(4-Cl)][d2Nal][dR]R[dR]R[Dap]-{Lys(FAM)} (linker N-7-14 via Trimesoyl; not fully specified (N-terminus)) [macrocyclic peptide B7-133-5, FAM-labelled] | > 10 µM |
| Y[dA]D[dY][dA][dL][Dap][Phe(4-Cl)][d2Nal][dR]R[dR]R[Dap]-{Lys(FAM)} (linker N-7-14 via Trimesoyl; not fully specified (N-terminus)) [macrocyclic peptide B7-133-2, FAM-labelled] | 8.2 ± 1.2 µM |

Biological target: T1, Ehrlichia translocated factor-1 …
Assay: fluorescence polarisation
Conditions: both partners purified
Remark: another data set of the same source

| Binder | Kd |
| --- | --- |
| B8 | ~1.5 µM |
| B9 | 2.2 ± 0.3 µM |
| B10 | 1.7 ± 0.2 µM |
| B11 | 2.9 ± 0.4 µM |

Biological target: T3, recombinant full-length BECN1 protein (Beclin 1) (human, UniProt Q14457 1-450)
T3 construct: also called ATG6; source: size exclusion chromatography
Assay: SPR; OpenSPR; biotinylated rEtf-1 (1 μM) immobilised on a streptavidin sensor chip, BECN1 dilutions as analyte; 20 mM Tris pH 8.0, 100 mM NaCl, 0.05% Tween 20; 30 µL/min
Conditions: both partners purified

T3 sequence (Q14457 whole entry): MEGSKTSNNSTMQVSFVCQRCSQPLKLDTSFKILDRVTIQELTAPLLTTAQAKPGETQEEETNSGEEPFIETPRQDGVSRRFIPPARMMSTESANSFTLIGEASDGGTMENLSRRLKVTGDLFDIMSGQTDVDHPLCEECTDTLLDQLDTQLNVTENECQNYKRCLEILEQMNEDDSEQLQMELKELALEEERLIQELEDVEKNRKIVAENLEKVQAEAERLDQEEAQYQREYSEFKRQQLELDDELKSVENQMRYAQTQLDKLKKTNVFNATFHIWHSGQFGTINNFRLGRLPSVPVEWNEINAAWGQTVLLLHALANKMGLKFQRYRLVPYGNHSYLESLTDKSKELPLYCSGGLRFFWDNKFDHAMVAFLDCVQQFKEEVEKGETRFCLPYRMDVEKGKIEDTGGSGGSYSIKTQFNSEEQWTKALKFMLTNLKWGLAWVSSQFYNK

| Binder | Kd |
| --- | --- |
| B12 | 0.06 ± 0.001 µM |
